For the test, the target named is GST-Cln3-10A (S. cerevisiae (budding yeast)) (UniProt P13365). Kind of test: pull-down.
UniProt P13365, sequence (P13365 whole entry): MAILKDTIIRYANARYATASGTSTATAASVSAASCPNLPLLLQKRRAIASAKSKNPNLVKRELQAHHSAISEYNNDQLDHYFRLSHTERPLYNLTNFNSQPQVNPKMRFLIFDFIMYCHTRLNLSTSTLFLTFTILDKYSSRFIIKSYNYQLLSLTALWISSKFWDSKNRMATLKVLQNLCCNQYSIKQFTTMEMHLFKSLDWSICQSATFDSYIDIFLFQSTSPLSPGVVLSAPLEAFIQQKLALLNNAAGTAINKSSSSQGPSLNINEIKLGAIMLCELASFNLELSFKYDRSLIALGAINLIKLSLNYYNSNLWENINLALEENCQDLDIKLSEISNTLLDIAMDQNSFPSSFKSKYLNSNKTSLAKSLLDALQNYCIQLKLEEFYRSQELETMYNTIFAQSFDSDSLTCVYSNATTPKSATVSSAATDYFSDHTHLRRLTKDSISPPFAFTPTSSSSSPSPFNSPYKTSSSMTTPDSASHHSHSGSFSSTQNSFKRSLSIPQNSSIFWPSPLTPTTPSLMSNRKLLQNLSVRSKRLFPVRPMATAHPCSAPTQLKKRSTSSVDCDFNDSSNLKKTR

Cdk1, sequence (P00546 whole entry): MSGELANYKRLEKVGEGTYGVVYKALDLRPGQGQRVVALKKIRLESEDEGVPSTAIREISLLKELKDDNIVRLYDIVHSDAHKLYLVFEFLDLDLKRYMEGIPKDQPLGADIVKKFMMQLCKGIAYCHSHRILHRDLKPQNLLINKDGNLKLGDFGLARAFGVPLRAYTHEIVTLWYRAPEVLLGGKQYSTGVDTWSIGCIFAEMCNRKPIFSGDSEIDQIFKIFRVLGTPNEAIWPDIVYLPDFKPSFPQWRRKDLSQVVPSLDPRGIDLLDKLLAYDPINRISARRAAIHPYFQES

Substance “Cdk1 (from UniProt P00546 1-298) (enzyme)” registered a fold lower amount of associated Cdk1 than with GST-Clb2 of 6 fold.
